# According to paper doi:10.1101/298208 (bioRxiv, 2018):
# B1: scavenger receptor class BI (SR-BI) (receptor)
# chain: MGGSSRARWVALGLGALGLLFAALGVVMILMVPSLIKQQVLKNVRIDPSSLSFGMWKEIPVPFYLSVYFFEVVNPNEVLNGQKPVVRERGPYVYREFRQKVNITFNDNDTVSFVENRSLHFQPDKSHGSESDYIVLPNILVLGGSILMESKPVSLKLMMTLALVTMGQRAFMNRTVGEILWGYDDPFVHFLNTYLPDMLPIKGKFGLFVGMNNSNSGVFTVFTGVQNFSRIHLVDKWNGLSKIDYWHSEQCNMINGTSGQMWAPFMTPESSLEFFSPEACRSMKLTYNESRVFEGIPTYRFTAPDTLFANGSVYPPNEGFCPCRESGIQNVSTCRFGAPLFLSHPHFYNADPVLSEAVLGLNPNPKEHSLFLDIHPVTGIPMNCSVKMQLSLYIKSVKGIGQTGKIEPVVLPLLWFEQSGAMGGKPLSTFYTQLVLMPQVLHYAQYVLLGLGGLLLLVPIICQLRSQEKCFLFWSGSKKGSQDKEAIQAYSESLMSPAAKGTVLQEAKL
# Target: the molecule itself
# Assay: native gel or EMSA
protein,measurement,value
B1,stoichiometry N,2
